# Paper PMC4948773, “Identification of Preferred DNA-Binding Sites for the Thermus thermophilus Transcriptional Regulator SbtR by the Combinatorial Approach REPSA” (PLoS ONE, 2016)
# T1: SbtR (Thermus thermophilus HB8, UniProt Q5SLX6 1-189)
# T1 sequence: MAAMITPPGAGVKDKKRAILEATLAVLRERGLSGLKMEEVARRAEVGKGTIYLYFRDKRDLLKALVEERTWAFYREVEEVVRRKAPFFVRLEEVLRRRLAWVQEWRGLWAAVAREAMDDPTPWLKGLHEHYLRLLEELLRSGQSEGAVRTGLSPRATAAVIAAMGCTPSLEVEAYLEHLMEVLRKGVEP
# Molecular target: T1, SbtR
# Assay: EMSA; S1 complex, apparent; EMSA/REPA: 50 mM K acetate, 20 mM Tris acetate, 10 mM Mg acetate, BSA (CutSmart), pH 7.9, binding 55 C 20 min (REPA cleavage 37 C); BLI: 20 mM Tris-Cl pH 7.7, 100 mM NaCl, 1 mM EDTA, 0.05% Tween 20, 30 C (hydration step; binding temperature not separately stated); concentrations as SbtR dimer
# Conditions: protein: recombinant; tags: none stated (pET-11a, wild-type); chain copies: 2; label: 5' IRDye700 on strand 1; blunt
row,Binder,Kd [nM]
1,SbtR mini probe 22-bp (dsDNA) DNA 1: GCCCTGACTGGCCAGTCACCCG DNA 2: CGGGTGACTGGCCAGTCAGGGC,5

# Molecular target: T1, SbtR
# Assay: BLI; EMSA/REPA: 50 mM K acetate, 20 mM Tris acetate, 10 mM Mg acetate, BSA (CutSmart), pH 7.9, binding 55 C 20 min (REPA cleavage 37 C); BLI: 20 mM Tris-Cl pH 7.7, 100 mM NaCl, 1 mM EDTA, 0.05% Tween 20, 30 C (hydration step; binding temperature not separately stated); concentrations as SbtR dimer
# Conditions: protein: recombinant; tags: none stated (pET-11a, wild-type); chain copies: 2; label: 5' biotin-dT on strand 2 (extra 5' T in primer)
row,Binder,Kd [nM]
1,m1 (dsDNA) DNA 1: CTAGGAATTCGTGCAGAGGTGAATAGACTGGCCAGTCATTACCATCCCTCCAGAAGCTTGGAC DNA 2: GTCCAAGCTTCTGGAGGGATGGTAATGACTGGCCAGTCTATTCACCTCTGCACGAATTCCTAG,0.551
2,m6 (dsDNA) DNA 1: CTAGGAATTCGTGCAGAGGTGAATTGACTCGCCAGTCATTACCATCCCTCCAGAAGCTTGGAC DNA 2: GTCCAAGCTTCTGGAGGGATGGTAATGACTGGCGAGTCAATTCACCTCTGCACGAATTCCTAG,0.159
3,m3 (dsDNA) DNA 1: CTAGGAATTCGTGCAGAGGTGAATTGTCTGGCCAGTCATTACCATCCCTCCAGAAGCTTGGAC DNA 2: GTCCAAGCTTCTGGAGGGATGGTAATGACTGGCCAGACAATTCACCTCTGCACGAATTCCTAG,2.18
4,m4 (dsDNA) DNA 1: CTAGGAATTCGTGCAGAGGTGAATTGAGTGGCCAGTCATTACCATCCCTCCAGAAGCTTGGAC DNA 2: GTCCAAGCTTCTGGAGGGATGGTAATGACTGGCCACTCAATTCACCTCTGCACGAATTCCTAG,1.24
5,m5 (dsDNA) DNA 1: CTAGGAATTCGTGCAGAGGTGAATTGACAGGCCAGTCATTACCATCCCTCCAGAAGCTTGGAC DNA 2: GTCCAAGCTTCTGGAGGGATGGTAATGACTGGCCTGTCAATTCACCTCTGCACGAATTCCTAG,15.5
6,m7 (dsDNA) DNA 1: CTAGGAATTCGTGCAGAGGTGAATTGACTGCCCAGTCATTACCATCCCTCCAGAAGCTTGGAC DNA 2: GTCCAAGCTTCTGGAGGGATGGTAATGACTGGGCAGTCAATTCACCTCTGCACGAATTCCTAG,0.839
7,m2 (dsDNA) DNA 1: CTAGGAATTCGTGCAGAGGTGAATTCACTGGCCAGTCATTACCATCCCTCCAGAAGCTTGGAC DNA 2: GTCCAAGCTTCTGGAGGGATGGTAATGACTGGCCAGTGAATTCACCTCTGCACGAATTCCTAG,7.11

# Molecular target: the molecule itself
# Assay: SDS-PAGE with and without reductant; Coomassie-stained 4-20% SDS-PAGE gradient gel; purified SbtR loaded under standard reducing conditions or under oxidizing conditions (Laemmli loading buffer lacking reductant)
# Conditions: not given
row,Binder,stoichiometry N
1,"SbtR, transcriptional regulator encoded by the Thermus thermophilus HB8 TTHA0167 gene (natural protein, UniProt Q5SLX6 1-189, looked up, intermolecular disulfide bond (disulfide-linked dimeric species), SbtR, TetR/AcrR family transcriptional regulator, Thermus thermophilus HB8, TTHA0167 (sbtR) gene in pET-11a; 189 amino acid residues, 21,539 Da; called wild-type SbtR; It says the plasmid holds the TTHA0167 gene and reckons the stock concentration from the 189-residue protein; also called SbtR2; SbtR dimer; source: E. coli BL21(DE3) with pET-sbtR, IPTG-induced; soluble extract heated at 70°C for …) MAAMITPPGAGVKDKKRAILEATLAVLRERGLSGLKMEEVARRAEVGKGTIYLYFRDKRDLLKALVEERTWAFYREVEEVVRRKAPFFVRLEEVLRRRLAWVQEWRGLWAAVAREAMDDPTPWLKGLHEHYLRLLEELLRSGQSEGAVRTGLSPRATAAVIAAMGCTPSLEVEAYLEHLMEVLRKGVEP",2
